Laboratory results published in publication PMC3978877.

Biological target: TNFα (UniProt P06804)
Sequence of UniProt P06804 (P06804 80-235): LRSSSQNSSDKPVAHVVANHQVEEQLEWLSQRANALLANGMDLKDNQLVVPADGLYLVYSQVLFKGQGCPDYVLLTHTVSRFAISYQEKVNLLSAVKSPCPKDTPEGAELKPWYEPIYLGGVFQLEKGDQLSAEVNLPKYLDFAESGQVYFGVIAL

B1: muTNFR-Fc (Fc fusion)
chain: VPAQVVLTPYKPEPGYECQISQEYYDRKAQMCCAKCPPGQYVKHFCNKTSDTVCADCEASMYTQVWNQFRTCLSCSSSCTTDQVEIRACTKQQNRVCACEAGRYCALKTHSGSCRQCMRLSKCGPGFGVASSRAPNGNVLCKACAPGTFSDTTSSTDVCRPHRICSILAIPGNASTDAVCAPESPTLSAIPRTLYVSQPEPTRSQPLDQEPGPSQTPSILTSLGSTPIIEQSTKGG
inhibition of TNF-mediated killing of lung murine fibroblasts (TNFα trimer 5 pM, actinomycin D 2 μg/ml, muTNFR-Fc 50 nM to 0.1 pM, 24 h); half-maximal inhibitory concentration: 0.1 nM
